From the supplement of paper PMC7125110 come the findings set out here.

The chains are these.
B1: glmS ribozyme (parent)
chain: AUAAAAGCGCCAGAACUACAGAAAUGUAGUUGACGAGGAGGAGGUUUAUCGAAUUUUCGGCGGAUGCCUCCAAA

Common to all, as to details: with glucosamine-6-phosphate
The variants in data set [1] derive from B1. The data set is described as follows: self-cleavage kobs at 40 uM GlcN6P; higher = faster cleavage; RNA array. In short, it runs like this:
(§1)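 Weighted Michaelis–Menten fits across concentrations supplied kcat and KM, based on kobs from one- or two-exponential decay fits to normalised per-tile medians. The data came from barcoded ribozyme variants transcribed in situ by E. coli RNA polymerase on sequenced MiSeq chips and tracked at 37 °C by a hybridised Cy3 probe. Glucosamine-6-phosphate (40 μM to 10 mM) in HEPES/KCl/Mg(OAc)2 buffer was flowed in.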

Variants of B1 are the subject of data set [2]. Briefly: self-cleavage kobs at 640 uM GlcN6P; higher = faster cleavage; RNA array. In short, it runs like this: as §1
The variants in data set [3] derive from B1. The data set is described as follows: self-cleavage kobs at 160 uM GlcN6P; higher = faster cleavage; RNA array. The gist of the method: as §1
Data set [4] covers variants of B1. The data set is described as follows: self-cleavage kobs at 2500 uM GlcN6P; higher = faster cleavage; RNA array. In short, it runs like this:
as §1

The variants in data set [5] derive from B1. The data set is described as follows: self-cleavage kobs at 10000 uM GlcN6P; higher = faster cleavage; RNA array. In short, it runs like this: as §1

± gives the standard error. Fewer inactive variants are shown than the library holds.

As to AUAAAAGCGCCAAAACUACAGAAAUGUAGUUGACGAGUAGGAGGUUUAUGGAAUUUUCGGCGGGUGCCUCCAAA [G13A G38U C50G A64G], the “self-cleavage kobs at 40 uM GlcN6P” value in data set [1] amounted to 6.47e-05 ± 2.4e-05 s⁻¹. Besides, in data set [2], the “self-cleavage kobs at 640 uM GlcN6P” value amounted to 0.00011 ± 5.2e-05 s⁻¹.
AUAAAAGCGCCAUAACUACAGAAAUGUAGUUUACGAAGACGAGGUUUAUCGAAUUUUCGGCGGAUGCCUCCAAA [G13U G32U G37A G40C]: the “self-cleavage kobs at 40 uM GlcN6P” value in data set [1] was less than 1e-05 s⁻¹.
AUAAAAGCAGCAGAACUACAGAAAUGUAGUUGACGAGGAGGAGGUUUAUCGAAUUUUCGGCGGAUGCCUCCAAA [G9A C10G]: the “self-cleavage kobs at 40 uM GlcN6P” value in data set [1] is less than 1e-05 s⁻¹. Further, the “self-cleavage kobs at 160 uM GlcN6P” value in data set [3] was less than 1e-05 s⁻¹. Besides, the “self-cleavage kobs at 2500 uM GlcN6P” value in data set [4] was less than 1e-05 s⁻¹.
In the case of AUAAAAACGCCAGAACUACAGAAAUGUAGUUGACGAGGAGGAGGUUUAUGGAAUUUUCGGCGGAUGCAUCCAAA [G7A C50G C68A], in data set [1], the “self-cleavage kobs at 40 uM GlcN6P” value came to 9.01e-05 ± 1.9e-05 s⁻¹. Moreover, the “self-cleavage kobs at 10000 uM GlcN6P” value in data set [5] turned out to be 0.000134 ± 2.4e-05 s⁻¹.
With AUAAAAGCGCCAGAACUACAGAAAUGUAGAUGACAAGGAGGAGGUUUAUCGAAUUUUCAGCGGAUGCCUCGAAA [U30A G35A G59A C71G], the “self-cleavage kobs at 40 uM GlcN6P” value in data set [1] was less than 1e-05 s⁻¹. For the same variant, the “self-cleavage kobs at 2500 uM GlcN6P” value in data set [4] was less than 1e-05 s⁻¹.
As to AUAAAAGCGCCAGAACUACAGAAAUGUAGUUGACGAGGAGAAGGUUUAUCGAAUUUUAGGCGGAUGCCUCCAAA [G41A C58A], the “self-cleavage kobs at 40 uM GlcN6P” value in data set [1] was less than 1e-05 s⁻¹. The “self-cleavage kobs at 640 uM GlcN6P” value in data set [2] is less than 1e-05 s⁻¹.
For AUAAAAGCGCCAGAACUACAGAAAUGUAGUUGACGAGGAGGACGUUUAUCUAAUUUUCGGCGGAUGCCUCCAAA [G43C G51U], in data set [1], the “self-cleavage kobs at 40 uM GlcN6P” value is less than 1e-05 s⁻¹. Also, in data set [5], the “self-cleavage kobs at 10000 uM GlcN6P” value is less than 1e-05 s⁻¹.
As to AUAAAAGCUCCAGAAAUACAGAAAUGUAGUUGACGAGGAGGAGGUUUAUCGAAUUUUCGGCGGAUGCCUCCAAA [G9U C16A], the “self-cleavage kobs at 40 uM GlcN6P” value in data set [1] is less than 1e-05 s⁻¹. The “self-cleavage kobs at 160 uM GlcN6P” value in data set [3] is less than 1e-05 s⁻¹. Also, the “self-cleavage kobs at 640 uM GlcN6P” value in data set [2] was less than 1e-05 s⁻¹. In addition, the “self-cleavage kobs at 2500 uM GlcN6P” value in data set [4] was less than 1e-05 s⁻¹. Besides, in data set [5], the “self-cleavage kobs at 10000 uM GlcN6P” value was less than 1e-05 s⁻¹.
Consider AUAAAAGCGCCAGAACUACAGAAAUGUAGUUGUAGAGGAGGAGGUUUAUCGAAUUUUCGGCGGAUGCCUCCAAA [A33U C34A], for which the “self-cleavage kobs at 40 uM GlcN6P” value in data set [1] is less than 1e-05 s⁻¹. Moreover, the “self-cleavage kobs at 160 uM GlcN6P” value in data set [3] was less than 1e-05 s⁻¹. Besides, the “self-cleavage kobs at 640 uM GlcN6P” value in data set [2] was less than 1e-05 s⁻¹. The “self-cleavage kobs at 2500 uM GlcN6P” value in data set [4] is less than 1e-05 s⁻¹. Besides, the “self-cleavage kobs at 10000 uM GlcN6P” value in data set [5] is less than 1e-05 s⁻¹.
AUAAAAGCGACAGAACUACAGAAAUGUAGGUGACGAGGAGGAGGUUUAUCGAAUUUUCGGCGGAUGCCUCUAAA [C10A U30G C71U]: the “self-cleavage kobs at 40 uM GlcN6P” value in data set [1] is less than 1e-05 s⁻¹. For the same variant, the “self-cleavage kobs at 10000 uM GlcN6P” value in data set [5] was less than 1e-05 s⁻¹.
On to AUAAAAGCGCCAGAACUACAGAAAUGUAGUAUACGUGGAGGAGGUUUAUCGAAUUUUCAGCGGAUGCCUCCAAA [U31A G32U A36U G59A], for which, in data set [1], the “self-cleavage kobs at 40 uM GlcN6P” value is less than 1e-05 s⁻¹. In data set [5], the “self-cleavage kobs at 10000 uM GlcN6P” value was less than 1e-05 s⁻¹.
AUAAACGCGCCGGAACUACAGAAAUGUAGUUGACGAGGAGGAGGUUUAUCGAAUUCUCGGCGGAUGCCUCCAAA [A6C A12G U56C]: the “self-cleavage kobs at 40 uM GlcN6P” value in data set [1] was less than 1e-05 s⁻¹. Besides, in data set [5], the “self-cleavage kobs at 10000 uM GlcN6P” value is less than 1e-05 s⁻¹.
Consider AUAAAAGCGCCAGAACUACAGAAAUGUAGUUGACGAGGAGGAGGUUUAUGGAAUUUUUGGCGGAUGCCUCCAAA [C50G C58U], for which, in data set [1], the “self-cleavage kobs at 40 uM GlcN6P” value amounted to 0.000198 ± 9.7e-05 s⁻¹. The “self-cleavage kobs at 160 uM GlcN6P” value in data set [3] stood at 9.14e-05 ± 2.2e-05 s⁻¹. For the same variant, the “self-cleavage kobs at 2500 uM GlcN6P” value in data set [4] stood at 0.000443 ± 0.00019 s⁻¹.
As to AUAAAAGCGCCAGAACUACAGAAAUGUAGUUGACGAGGAGGAGGUUUAUCGAUUUUUCGGAGGAUGCCUCCAAA [A53U C61A], the “self-cleavage kobs at 40 uM GlcN6P” value in data set [1] is less than 1e-05 s⁻¹. Further, the “self-cleavage kobs at 10000 uM GlcN6P” value in data set [5] was less than 1e-05 s⁻¹.
As to AUAAAAGCGCCAGAACUACAGAAAUGUAGUUGACGAGCUGGAGGUUUAUCGAAUUUUCGGCGGAUGCCUCCAAA [G38C A39U], the “self-cleavage kobs at 40 uM GlcN6P” value in data set [1] was less than 1e-05 s⁻¹. Besides, the “self-cleavage kobs at 640 uM GlcN6P” value in data set [2] was less than 1e-05 s⁻¹.
